Data as given in patent US20240002528A1 (University of Texas, published 2024).

Key:
[1] = biological target: T1, full-length human cystinosin-LKG with a C-terminal Flag tag (human, UniProt O60931-2 23-400, limits assumed); experiment: size-exclusion chromatography (gel filtration) of Cystinosin incubated with Fab3H5 at a 1:1.5 molar ratio, with a polyacrylamide gel of the peak fraction; the sheet is marked pH7.0
T1 construct: Expressed in HEK-293S GnTI- cells and purified in DDM then digitonin; It was reconstituted in amphipols for immunisation; also called recombinant human Cystinosin; wild-type (WT) human Cystinosin; not shown: C-terminal Flag tag
T1 sequence (looked up): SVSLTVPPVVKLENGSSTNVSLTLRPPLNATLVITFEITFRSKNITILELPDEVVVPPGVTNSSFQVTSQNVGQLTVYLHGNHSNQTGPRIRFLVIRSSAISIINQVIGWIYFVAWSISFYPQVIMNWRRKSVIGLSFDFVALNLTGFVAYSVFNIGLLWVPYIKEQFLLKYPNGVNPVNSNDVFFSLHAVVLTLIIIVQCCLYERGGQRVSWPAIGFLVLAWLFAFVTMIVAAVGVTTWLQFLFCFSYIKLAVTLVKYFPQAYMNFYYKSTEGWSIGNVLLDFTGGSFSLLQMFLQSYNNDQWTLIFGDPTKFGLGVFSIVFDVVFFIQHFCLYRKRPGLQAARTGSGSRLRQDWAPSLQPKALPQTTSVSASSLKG
Protocol: To assemble Cystinosin-Fab^3H5 complex, purified Cystinosin was incubated with Fab^3H5 at a 1:1.5 molar ratio at 4° C. for 30 minutes. The mixture was then purified by SEC using the aforementioned buffer (FIG. 1A). Peak fractions were collected and concentrated to […]. The isolated complex was then used for functional and structural studies. In particular the complex was used in Cryo-EM studies.

[2] = biological target: T1, full-length human cystinosin-LKG with a …; experiment: ELISA and immunoprecipitation screen of hybridoma supernatants; ELISA and immunoprecipitation screen of hybridoma clone (folded cystinosin)

B1: Fab3H5 (Fab fragment of IgG-3H5 generated by papain cleavage) (Fab, V domains shown)
VH: EVMLVESGGGLVKPGGSLKLSCAASGFTFSNYAMSWVRQTPEKRLEWVAAISGNEGTYTYYPDSVRGRFTISRDNARNNLYLQISSLRSEDTALYYCARYGLVGALDFWGQGAS
VL: DIQMNQSPSTLSASLGDTITITCRASQNIDVWLNWYQQKPGDIPKLLIYEASNLHTGVPSRFSGSGSGTDFTLAISSLQPEDIATYYCLQGQDYPFTFGSGTK
notes: The reaction was stopped with iodoacetamide
binding result [1]: binds

B2: IgG-3H5, a mouse monoclonal anti-human Cystinosin antibody (antibody, V domains shown)
VH: B1 VH
VL: B1 VL
notes: also called 3H5 antibody; monoclonal antibody 3H5
binding result [2]: binds
